The text below walks through data of paper doi:10.1101/525659.

The target of the assay is His6-tagged αSyn (human) (UniProt P37840). The assay can be described thus: BLI.

“E234G/H363A-HYPE (from UniProt Q9BVA6 102-458) (enzyme)” returned a Kd of 15.3 µM.

By Kd is commonly meant the free concentration of one partner at which half of the binding sites on the other are occupied at equilibrium, for simple one-to-one binding. Higher therefore signals a looser complex.
